The text below walks through data of patent US20200325224A1.

In assay [1] the target is human CD3 epsilon (on human T cells / CD3-positive Jurkat E6-1 cells) (human) (UniProt P07766). The assay is described as follows: FACS on expanded human T cells (hum PBL), antibody at 1 µg/ml, Alexa488-labelled secondary antibody, geomean of fluorescence.
Assay [2] shares this target. Description: FACS on expanded human T cells (hum PBL), antibody at 10 µg/ml, Alexa488-labelled secondary antibody, geomean of fluorescence.
For assay [3] the target is unchanged. The assay is described as follows: FACS on expanded human T cells (hum PBL), antibody at 0.1 µg/ml, Alexa488-labelled secondary antibody, geomean of fluorescence.
Assay [4] deals with cynomolgus CD3 epsilon (on expanded cynomolgus T cells) (cynomolgus) (UniProt Q95LI5). The assay is described as follows: FACS on expanded cynomolgus T cells (cyno PBL), antibody at 1 µg/ml, Alexa488-labelled secondary antibody, geomean of fluorescence.
Assay [5] shares this target. Description: FACS on expanded cynomolgus T cells (cyno PBL), antibody at 10 µg/ml, Alexa488-labelled secondary antibody, geomean of fluorescence.
Assay [6] has the same target. The assay is described as follows: FACS on expanded cynomolgus T cells (cyno PBL), antibody at 0.1 µg/ml, Alexa488-labelled secondary antibody, geomean of fluorescence.

Chain of cynomolgus CD3 epsilon (on expanded cynomolgus T cells) (cynomolgus) (Q95LI5 22-197 limits assumed): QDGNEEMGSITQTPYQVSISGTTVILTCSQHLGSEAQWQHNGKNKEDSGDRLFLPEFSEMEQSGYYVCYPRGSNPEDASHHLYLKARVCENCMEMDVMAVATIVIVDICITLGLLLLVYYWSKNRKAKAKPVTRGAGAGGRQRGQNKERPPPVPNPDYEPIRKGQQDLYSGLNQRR
Chain of human CD3 epsilon (on human T cells / CD3-positive Jurkat E6-1 cells) (human) (P07766 23-207 limits assumed): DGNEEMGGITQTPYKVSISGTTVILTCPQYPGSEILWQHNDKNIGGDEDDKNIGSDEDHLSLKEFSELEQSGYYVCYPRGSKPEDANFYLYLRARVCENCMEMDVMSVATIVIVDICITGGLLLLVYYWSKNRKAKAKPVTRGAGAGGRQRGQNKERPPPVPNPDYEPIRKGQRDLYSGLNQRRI

Regarding M-IgG1 (antibody), the geomean at 1 µg/ml in assay [1] was 42; in assay [4], 33. Further, the geomean at 10 µg/ml turned out to be 44 in assay [2] and 34 in assay [5]. The geomean at 0.1 µg/ml in assay [3] was determined as 40; in assay [6] it was 33.

Turning to Iso rb (antibody), the figures for the geomean at 1 µg/ml in assay [1] and in assay [4] were 39 and 38, respectively. Moreover, the geomean at 10 µg/ml in assay [2] stood at 47; in assay [5], 40. In addition, the geomean at 0.1 µg/ml in assay [3] stood at 43; in assay [6], 37.

As to anti-CD3 reference antibody SP34-2, the geomean at 1 µg/ml in assay [1] came out at 9610; in assay [4], 16500. Also, the geomean at 10 µg/ml in assay [2] stood at 15900; in assay [5] it was 19500. Moreover, the geomean at 0.1 µg/ml in assay [3] came to 2610; in assay [6], 5000.

As for hu-IgG1 (antibody), the geomean at 1 µg/ml was found to be 56 in assay [1] and 64 in assay [4]. The geomean at 10 µg/ml in assay [2] came to 85; in assay [5] it was 67. Moreover, the values for the geomean at 0.1 µg/ml in assay [3] and in assay [6] were 54 and 61, respectively.
